Consider nine molecules from publication PMC12081870 (Communications Biology, 2025).

Assay [1] relates to Las17-GFP and Arc15-mCherry. Briefly: Dual-reporter lifetimes, Las17-GFP and Arc15-mCherry co-localisation. Set-up: lifetime, GFP alone / lifetime, GFP and RFP / lifetime, RFP: unit not given here. It is filed as cell-based, Saccharomyces cerevisiae. As to conditions: sheet Fig9E, individual endocytic patches, one per cell. On the procedure: A size bar for each set of kymographs is shown on the upper right of each set. For (A) and (C) size bar is 100 nm and for B is 200 nm. Error bars are standard deviation. […] The site of interest is labelled in the first two time panels with a white arrow. Exposure 0.5 sec with 1 second time lapse. 120 s recorded. […] Error bars are standard deviation.
Individual spots were analysed for lifetimes and behaviours.
Yeast strains used in this study are listed in Supplementary table 2 and plasmids used in Supplementary table 1. Unless stated otherwise, cells were grown with rotary shaking at 30 °C in liquid YPD medium (1% yeast extract, 2% Bacto-peptone, 2% glucose supplemented with 40 μg/ml adenine) or in synthetic medium (0.67% yeast nitrogen base, 2% glucose) with appropriate supplements. […] DNA cassettes carrying mutations for integration were transformed into KAY1801. Mutant colonies were counter-selected on minimal medium, containing 0.005% uracil and 0.1% 5’-Fluoroorotic Acid (5-FOA; Melford laboratories). Allele exchange, in growing Ura3^-, 5-FOA resistant colonies, was confirmed by PCR and sequencing.
For live-cell imaging, cells expressing tagged proteins were visualised after growing to early log phase. Analysis was carried out at room temperature (22 °C). […] Images were taken simultaneously on separate scientific complementary metal oxide semiconductor (sCMOS) cameras (30 msec exposure). Seven 250 nm sections were acquired every 0.5 sec (241 time points). The stacks were then deconvolved and processed, using SoftWorx. Protein localisation and lifetime was analysed from those projections. Fiji software was used to assemble movies and kymographs, to track and record behaviour of individual spots. Graphs show mean ± SD. […] Where appropriate data was tested for normal distribution using Graphpad Prism software, and then subjected to the appropriate test as described in the methods for each experiment type.

Assay [2] has as its system Las17 12mer peptides / GST-Sla1 SH3 domains. Briefly: Peptide spot array (Celluspot) of Las17 12mers probed with GST-Sla1 SH3 domains. As to conditions: GST-Sla1 SH3 domain on 12mer array, 2-residue offset, anti-GST HRP, chemiluminescence. It is filed as binding, Saccharomyces cerevisiae. On the procedure: A Purified individual GST-tagged Sla1 SH3 domains were used to probe a Celluspot array consisting of a series of 12 amino acid peptides starting with residue 181, and subsequent peptides starting at two amino acid intervals, up to amino acid 540. Binding of GST-Sla1 SH3 to the array was identified by further probing of HRP-tagged anti-GST and subsequent visualisation using chemiluminescence. […] Error bars are standard error of mean.
They were incubated with GST fused SH3 domains of Sla1 or with GST alone, as described in ref.[57]. Membranes were probed with HRP tagged anti-GST, and the presence of SH3-GST fusion protein was detected with ECL chemiluminescent detection solution (Thermo Fisher Scientific).

The test system of assay [3] is Las17-Arp2/3 mediated actin polymerisation. As to conditions: 15 nM Las17, 1 µM Sla1 SH3 domains, ref [13]; cited from earlier work. The source says: In Sla1 the first two SH3 domains are immediately juxtaposed with no linker. There are then 236 residues before the third SH3 domain (Fig. 1A).
Assay [4] addresses T1, Sla1 SH3#1-2 tandem domains (aa 5-131) (S. cerevisiae, UniProt P32790 5-131, 15N-labelled (NMR only)).
T1 construct: Sla1, S. cerevisiae, first two SH3 domains (juxtaposed, no linker), residues 5-131; also called Sla1 SH3 domains 1 and 2; tandem SH3#1&2 domain; source: E. coli, purified (GST fusion, cleaved with Prescission protease; His-tagged Sla1-SH3 domains were also made); 15N- or 15N,13C-labelled for NMR
T1 sequence (looked up): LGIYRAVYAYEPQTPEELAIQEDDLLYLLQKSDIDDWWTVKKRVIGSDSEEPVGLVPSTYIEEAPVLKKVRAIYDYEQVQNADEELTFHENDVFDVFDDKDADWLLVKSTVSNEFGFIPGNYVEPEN
Briefly: NMR titration; 15N-labelled Sla1 SH3 domains, 1H-15N HSQC; concentrated peptide stocks in the same buffer and pH added stepwise (0 to 8 equivalents shown); shift changes fitted to the standard quadratic equation. As to conditions: both partners purified.

Assay [5] deals with T2, Las17 PPR-N fragment (residues 300-422), wild type (S. cerevisiae, UniProt Q12446 300-422).
T2 construct: Las17 (yeast WASP family protein, Las17/Bee1), S. cerevisiae, residues 300-422 (N-terminal half of the polyproline region, PPR-N); also called Las17(300-422); Las17 300-422; source: E. coli, purified (GST fusion on glutathione Sepharose, cleaved with PreScission Protease; a His-tagged form purified on a nickel column was also made)
Briefly: BLI; Octet R2 (Sartorius); Octet NTA Biosensors or Octet GST Biosensors, which partner was loaded is not stated; repeated three times; the constant of SH3#1-3 is called apparent. As to conditions: both partners purified. (In general: Biolayer interferometry detects binding as a change in optical thickness at a sensor tip.)

Assay [6] in a line: Liposome co-sedimentation assay. Set-up: unit: %. It is filed as binding. On the procedure: Liposome binding assays were carried out as described previously. To prepare liposomes 11 μl of a 25 mg/ml solution of Folch fraction-1 was dried under a nitrogen stream. They were washed in chloroform, dried under nitrogen, and further washed with diethyl ether to remove all traces of chloroform before being dried again. The dried lipid mixture was resuspended in 200 µl of buffer B (20 mM HEPES pH 7.2, 100 mM KCl, 2 mM MgCl2, 1 mM DTT) at 37 °C for 30 min with regular gentle agitation. Liposomes were then extruded 11 times through polycarbonate filters with 1.0 μm pores. For liposome binding assays 20 μM Sla1 (pre-spun at 313,000 × g for 15 min) was mixed with 20 μl liposomes in buffer B, (final volume 50 µl) and incubated at room temperature for 15 min. Liposomes and bound protein were pelleted by centrifugation at 250,000 × g for 15 min, and supernatants and pellets carefully separated. The pellets were resuspended in 50 µl buffer B and samples were analysed by SDS-PAGE. The proportion of protein in each sample was determined by densitometry of the Coomassie stained gels using a BioRad GelDoc. Replicate experiments were carried out with protein from different preparations. To normalise the data the amount of protein in the supernatant and pellet of each sample was added together to give a value for 100%, and then the % in either the supernatant or pellet alone was calculated. When liposomes were included in the pyrene actin assay they were prepared as described for liposome binding assays, but the dried lipid mixture was resuspended in 5×KME in place of liposome buffer. This was then used as a source of KME in the pyrene actin assay as well as a source of lipid. Mean ± SD is shown n = 6. Sîdák’s multiple comparisons test was carried out using Graphpad Prism software, **** denotes two tailed P value of < 0.0001.
Liposome binding studies: triplicate experiments were carried out with protein from different preparations. To normalise the data the amount of protein in the supernatant and pellet of each sample was added together to give a value for 100%, and then the % in either the supernatant or pellet alone was calculated. Mean ± SD is shown n = 6. Sîdák’s multiple comparisons test was carried out using Graphpad Prism software, **** denotes two tailed P value of < 0.0001.

Assay [7] has as its target Las17 PPR-N fragment (residues 300-422). Briefly: Biolayer Interferometry (BLI), Sla1 SH3 domains to Las17 PPR-N. Type of assay: binding, Saccharomyces cerevisiae. As to conditions: Biolayer Interferometry, Octet R2, Las17 (aa 300-422); three repeats with newly prepared protein; read-out: binding affinity (Kd). An excerpt: To investigate binding characteristics of the SH3 domains further, Sla1 SH3 protein domains were purified. Three Sla1 SH3 single domains, tandem domains Sla1 SH3#1&2, Sla1 SH3#1&2 W108A (in which the W108A mutation prevents proline motif binding by SH3#2 but not SH3#1) and a fragment with all three SH3 domains were expressed recombinantly and purified. […] This outcome is in line with original research of Rodal and colleagues and with more recent studies of avidity developed by Williamson, which highlighted the importance of tandem binding SH3 domains[13],[27].
Biolayer Interferometry (BLI) assays were performed using an OctetⓇ R2 (Sartorius). Protein samples were placed into the wells of a polystyrene plate (ProxiPlateTM, Perkin Elmer) and binding measured either with Octet NTA Biosensors or Octet GST Biosensors. Screening assays were performed to determine the optimum loading concentration and time for each binding pair to ensure that the probe was not saturated. All experiments were repeated three times, each time with newly prepared protein. Analysis and visualisation were performed using GraphPad Prism 10.0.2.

Where “and” joins values, the source holds several entries; their conditions need not be identical. Identical values can stand only once. Ends that are not written are not given here.

Regarding “wt: wild type cells with Las17-GFP and Arc15-mCherry”, in assay [1], the “lifetime, GFP alone” value was 20 (3×) and 22 (4×) and 18 (2×) and 28 and 24 and 26 (2×); the “lifetime, GFP and RFP” value is 30 and 44 and 36 and 32 (4×); the “lifetime, RFP” value is 34 and 48 and 44 and 36 (3×) and 46.

With “Sla1 SH3#3: SH3#3 (aa 354-413) (SKKRGIVQYDFMAESQDELTIKSGDKVYILDDKKSKDWWMCQLVDSGKSGLVPAQFIEPV; also: 15N-labelled)”, the “binding to Las17 peptide spots” value in assay [2] was “strongest binding for peptides in proline tracts 1 and 3”. The “inhibition of actin polymerisation activity” value in assay [3] is “not”.

B1: Las17 peptide p1 (PP1 motif) (peptide)
peptide: RNNRPVPPPPPMRTTTEGSGVR
notes: Las17, S. cerevisiae, first PP motif; also called peptide 1; source: synthetic peptide (GenScript Biotech, UK)
With B1, in assay [4], the “Kd at site SH3#1” value was approximately 70 µM and the “Kd at site SH3#2” value was approximately 550 µM.

B2: Las17 peptide p3 (PP3 motif) (peptide)
peptide: LPAQTGRRGPAPPPPPRASRPTP
notes: Las17, S. cerevisiae, third PP motif; also called peptide 3; source: synthetic peptide (GenScript Biotech, UK)
B2: in assay [4], the “Kd at site SH3#1” value is approximately 24 µM and the “Kd at site SH3#2” value is approximately 190 µM.

B3: Sla1 SH3#3 (aa 354-413) (domain or fragment, S. cerevisiae, UniProt P32790 354-413, looked up)
chain: SKKRGIVQYDFMAESQDELTIKSGDKVYILDDKKSKDWWMCQLVDSGKSGLVPAQFIEPV
modifications: also: 15N-labelled
notes: Sla1, S. cerevisiae, third SH3 domain, residues 354-413; also called Sla1 SH3 domain 3; source: E. coli, purified (GST fusion, GST removed with thrombin; His-tagged Sla1-SH3 domains were also made); 15N-labelled for NMR
Consider B3, for which the Kd in assay [5] amounted to 16 µM.

B4: GST-Sla1 SH3#1-3: GST-tagged Sla1 SH3#1-3 containing the predicted PH domain (protein, UniProt P32790 5-413, looked up, fragment)
chain: LGIYRAVYAYEPQTPEELAIQEDDLLYLLQKSDIDDWWTVKKRVIGSDSEEPVGLVPSTYIEEAPVLKKVRAIYDYEQVQNADEELTFHENDVFDVFDDKDADWLLVKSTVSNEFGFIPGNYVEPENGSTSKQEQAPAAAEAPAATPAAAPASAAVLPTNFLPPPQHNDRARMMQSKEDQAPDEDEEGPPPAMPARPTATTETTDATAAAVRSRTRLSYSDNDNDDEEDDYYYNSNSNNVGNHEYNTEYHSWNVTEIEGRKKKKAKLSIGNNKINFIPQKGTPHEWSIDKLVSYDNEKKHMFLEFVDPYRSLELHTGNTTTCEEIMNIIGEYKGASRDPGLREVEMASKSKKRGIVQYDFMAESQDELTIKSGDKVYILDDKKSKDWWMCQLVDSGKSGLVPAQFIEPV
modifications: GST tag
notes: GST-tagged Sla1 SH3#1-3 containing the predicted PH domain
On to B4, for which the liposome co-sedimentation result in assay [6] (20 μM Sla1, buffer B, room temperature 15 min, 250,000 × g) is listed as “co-precipitates with liposomes”; in assay [6] (- lipid, replicate 1), 0; in assay [6] (- lipid, replicate 2), 11.5044; in assay [6] (- lipid, replicate 3) it was 0; in assay [6] (- lipid, replicate 4) it was 2.9; in assay [6] (- lipid, replicate 5) it was 3. Besides, the liposome co-sedimentation in assay [6] (- lipid, replicate 6) came to 5.

B5: Sla1 SH3 1&2-W108A: W108A mutation prevents proline motif binding by SH3#2 but not SH3#1 (protein, UniProt P32790 5-131, looked up, variant W108A)
chain: LGIYRAVYAYEPQTPEELAIQEDDLLYLLQKSDIDDWWTVKKRVIGSDSEEPVGLVPSTYIEEAPVLKKVRAIYDYEQVQNADEELTFHENDVFDVFDDKDADALLVKSTVSNEFGFIPGNYVEPEN
For B5, the Kd in assay [7] was 7.4 µM.

B6: Sla1 SH3#1 (aa 3-68) (domain or fragment, S. cerevisiae, UniProt P32790 3-68, looked up)
chain: VFLGIYRAVYAYEPQTPEELAIQEDDLLYLLQKSDIDDWWTVKKRVIGSDSEEPVGLVPSTYIEEA
notes: Sla1, S. cerevisiae, first SH3 domain, residues 3-68; also called Sla1 SH3 domain 1; source: E. coli, purified (GST fusion, GST removed with thrombin; His-tagged Sla1-SH3 domains were also made)
For the molecule B6, the Kd in assay [5] stood at 7.5 µM.

B7: Sla1 SH3#1: Sla1 SH3#1 (aa 3-68) (protein)
chain: VFLGIYRAVYAYEPQTPEELAIQEDDLLYLLQKSDIDDWWTVKKRVIGSDSEEPVGLVPSTYIEEA
modifications: left off: GST, end not stated, kept
For B7, the “binding to Las17 peptide spots” value in assay [2] is “preference for sequences in the Las17 proline tracts 2 and 3”. In assay [3], the “inhibition of actin polymerisation activity” value was “about 80%”.
